From the RNAGym collection of RNA variant scans (doi:10.7554/elife.80360) come the findings set out here.

The labels stand for the following.
B1: HDV Ribozyme (parent)
chain: GGCCGGCAUGGUCCCAGCCUCCUCGCUGGCGCCGGCUGGGCAACAUUCCGAGGGGACCGUCCCCUCGGUAAUGGCGAAUGGGACCCA

Variants of B1 are the subject of the series. Put plainly: self-cleavage, relative activity (ratio to wild type); higher = more cleavage; co-transcriptional.
For GGCCGGCAUGGUCGCAGCCUCCUCGCUGGCGCCGGCUGGGCAACACUCCGAGGGGACCGUCCCCUCGGUAAUGGCGAAUGGGACCCA [C14G U46C], the self-cleavage is 0.511.

Regarding GGCCGGCAUGGUCGCAGCCUCCUCGCUGGCGCCGGCUGGUCAACAUUCCGAGGGGACCGUCCCCUCGGUAAUGGCGAAUGGGACCCA [C14G G40U], the self-cleavage was determined as 0.0594. GGCCGGCAUGGUCUCAGCCUCCUCGCUGGCGCCGGCUGGGCAACAUUCCGAGGGGACCGUCCCCUCGGUAAUGGCGAAUGGGCCCCA [C14U A83C]: the self-cleavage was 0.499. In the case of GGCCGGCAUGGUCGCAGCCUCCUCGCUGGCGCCGGCUGGGCAACAUUCCGAGGGGACCGUCCCCUCGGUAAUGGCGAAUCGGACCCA [C14G G80C], the self-cleavage turned out to be 0.0723.

With GGCCGGCAUGGUCGCAGCCUCCUCGCUGGCGCCGGCUGGGCAACAUUCCGAGGGGACCGUCCCCUCGGUAAUUGCGAAUGGGACCCA [C14G G73U], the self-cleavage was 0.0755. Consider GGCCGGCAUGGUCUCAGCCUCCUCGCUGGCGCCGGCUGGGCAACAUUCCGGGGGGACCGUCCCCUCGGUAAUGGCGAAUGGGACCCA [C14U A51G], for which the self-cleavage stood at 0.898. As for GGCCGGCAUGGUCGCAGCCUCCUCGCUGGCGCCGGCUCGGCAACAUUCCGAGGGGACCGUCCCCUCGGUAAUGGCGAAUGGGACCCA [C14G G38C], the self-cleavage was determined as 0.142. As for GGCCGGCAUGGUCGCAGCCUCCUCGCUGGCGCCGGCUGGGCAACAUUCCGAGGGGACCGUCCCCUCGCUAAUGGCGAAUGGGACCCA [C14G G68C], the self-cleavage was 0.383. Turning to GGCCGGCAUGGUCGCAGCCUCCUCGCUGGCGCCGGCUGGGCAACAUUCCGAGGGGACCGUCCCCUCGUUAAUGGCGAAUGGGACCCA [C14G G68U], the self-cleavage was found to be 0.277. Next, GGCCGGCAUGGUCGCAGCCUCCUCGCUGGCGCCGGCUGGGCAACAUUCCGAAGGGACCGUCCCCUCGGUAAUGGCGAAUGGGACCCA [C14G G52A]: 0.739; GGCCGGCAUGGUCGCAGCCUCCUCGCUGGCGCCGGCUGGGCAACAUUCCGACGGGACCGUCCCCUCGGUAAUGGCGAAUGGGACCCA [C14G G52C]: 0.519. In the case of GGCCGGCAUGGUCUCAGCCUCCUCGCUGGCGCCGGCUGGGCAACUUUCCGAGGGGACCGUCCCCUCGGUAAUGGCGAAUGGGACCCA [C14U A45U], the self-cleavage was 0.892. Turning to GGCCGGCAUGGUCUCAGCCUCUUCGCUGGCGCCGGCUGGGCAACAUUCCGAGGGGACCGUCCCCUCGGUAAUGGCGAAUGGGACCCA [C14U C22U], the self-cleavage stood at 0.935.

GGCCGGCAUGGUCUCAGACUCCUCGCUGGCGCCGGCUGGGCAACAUUCCGAGGGGACCGUCCCCUCGGUAAUGGCGAAUGGGACCCA [C14U C18A]: the self-cleavage was determined as 0. As for GGCCGGCAUGGUCGCAGCCUCCUCGCUGGCGCCGGCUGGGCAACAUUCCGAGGGGACCGUCCCCACGGUAAUGGCGAAUGGGACCCA [C14G U65A], the self-cleavage stood at 0.65. Next, GGCCGGCAUGGUCGCAGCCUCCUCGCUGGCGCCGGCUGGGCAACAUUCCGAGGGGACCGUCCCCCCGGUAAUGGCGAAUGGGACCCA [C14G U65C]: 0.8; GGCCGGCAUGGUCGCAGCCUCCUCGCUGGCGCCGGCUGGGCAACAUUCCGAGCGGACCGUCCCCUCGGUAAUGGCGAAUGGGACCCA [C14G G53C]: 0.727. As for GGCCGGCAUGGUCUCAGCCUCCUCGCUGGCGCCGGCUGGGCAACAUUCCGAGGGGACCGUCCCCUCGGUAAUGGCGACUGGGACCCA [C14U A78C], the self-cleavage is 0.237. With GGCCGGCAUGGUCUCAGCCUCCUCGCUGGCGCCGGCUGGGCAACAUUCCGAGGGGGCCGUCCCCUCGGUAAUGGCGAAUGGGACCCA [C14U A56G], the self-cleavage was determined as 1.16. On to GGCCGGCAUGGUCGCAGCCUCCUCGCUGGCGCCGGCUGGGCAACAUUCCGAGGGGACCGCCCCCUCGGUAAUGGCGAAUGGGACCCA [C14G U60C], for which the self-cleavage worked out at 0.443.

With GGCCGGCAUGGUCGCAGCCUCCUCGCUGGCGCCGGCUGGGCAACAUUCCGAGGGGACCGUCCCCUCUGUAAUGGCGAAUGGGACCCA [C14G G67U], the self-cleavage turned out to be 0.594. As for GGCCGGCAUGGUCGCAGCCUCCUCGCUGGCGCCGUCUGGGCAACAUUCCGAGGGGACCGUCCCCUCGGUAAUGGCGAAUGGGACCCA [C14G G35U], the self-cleavage was determined as 0. As for GGCCGGCAUGGUCGCAGCCUCCUCGCUGGCGCCGACUGGGCAACAUUCCGAGGGGACCGUCCCCUCGGUAAUGGCGAAUGGGACCCA [C14G G35A], the self-cleavage was determined as 0.199. For GGCCGGCAUGGUCGCAGCCUCCUCGCUGGCGCCGCCUGGGCAACAUUCCGAGGGGACCGUCCCCUCGGUAAUGGCGAAUGGGACCCA [C14G G35C], the self-cleavage is 0.

As to GGCCGGCAUGGUCUCAGCCUCCUCGCUGGCGCCGGCUGGGCACCAUUCCGAGGGGACCGUCCCCUCGGUAAUGGCGAAUGGGACCCA [C14U A43C], the self-cleavage is 0.364. In the case of GGCCGGCAUGGUCUCAGCCUCCUCGCUGGCGCCGGCUGGGCAACAUUCCGAGGGGACCGUCCCCUCGGUAAUGGCGGAUGGGACCCA [C14U A77G], the self-cleavage was 1.31.

As to GGCCGGCAUGGUCGCAGCCUCCUCGCUGGCGCCGGCUGGGCAACAUUCCGAGGGGACCGUCCCCUCGGAAAUGGCGAAUGGGACCCA [C14G U69A], the self-cleavage was found to be 0.767.

Regarding GGCCGGCAUGGUCGCAGCCUCCUCGCUGGCGCCGGCUGGGCAACAUUCCGAGGGGACCGUCCCCUCGGUAAUGUCGAAUGGGACCCA [C14G G74U], the self-cleavage came out at 0.128.

GGCCGGCAUGGUCGCAGCCUCCUCGCUGGCGCCGGCUGGGCAACAUUCCGAGGGGACCGUCCCCUCGGUAAUGCCGAAUGGGACCCA [C14G G74C]: the self-cleavage turned out to be 0.0639. With GGCCGGCAUGGUCUGAGCCUCCUCGCUGGCGCCGGCUGGGCAACAUUCCGAGGGGACCGUCCCCUCGGUAAUGGCGAAUGGGACCCA [C14U C15G], the self-cleavage stood at 0.415. Consider GGCCGGCAUGGUCGCAGCCUCCUCGCUGGCGCCGGCUGGGCAACAUUCCGAGGGGACCGUCCCCUCGGUAAUGGCGAAGGGGACCCA [C14G U79G], for which the self-cleavage came out at 0. GGCCGGCAUGGUCGCAGCCUCCUCGCUGGCGCCGGCUGGGCAACAUUCCGAGGGGACCUUCCCCUCGGUAAUGGCGAAUGGGACCCA [C14G G59U]: the self-cleavage came out at 0.745.
